T1: human GLP-2 receptor (hGLP2-R) (human, UniProt O95838 1-553)
T1 sequence (looked up): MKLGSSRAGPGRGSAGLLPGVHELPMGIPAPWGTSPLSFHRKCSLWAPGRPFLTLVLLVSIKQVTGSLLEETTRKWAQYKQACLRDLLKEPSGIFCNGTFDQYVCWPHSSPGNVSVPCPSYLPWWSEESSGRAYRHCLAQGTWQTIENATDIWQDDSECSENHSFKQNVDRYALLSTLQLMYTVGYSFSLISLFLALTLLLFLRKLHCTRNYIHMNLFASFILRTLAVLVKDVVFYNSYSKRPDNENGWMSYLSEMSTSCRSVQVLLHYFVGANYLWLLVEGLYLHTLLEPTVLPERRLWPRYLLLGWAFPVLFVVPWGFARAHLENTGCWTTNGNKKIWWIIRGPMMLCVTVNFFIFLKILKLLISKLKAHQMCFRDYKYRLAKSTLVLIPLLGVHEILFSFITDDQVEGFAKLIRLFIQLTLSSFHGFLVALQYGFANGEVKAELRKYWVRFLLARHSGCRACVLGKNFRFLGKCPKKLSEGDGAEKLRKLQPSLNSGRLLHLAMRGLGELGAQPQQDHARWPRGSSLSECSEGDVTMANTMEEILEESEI

B1: Compound 12 (peptide)
peptide: HXEGTFTSELATILDXLAARDFIAWLIEHKITD
HELM: PEPTIDE1{H.[Aib].E.G.T.F.T.S.E.L.A.T.I.L.D.K.L.A.A.R.D.F.I.A.W.L.I.E.H.K.I.T.D}|PEPTIDE2{[O=C(O)CCCCCCCCCCCCCCCCC(=O)[*:2]].[gGlu]}$PEPTIDE1,PEPTIDE2,16:R3-2:R2$$$V2.0
SMILES: CC[C@H](C)[C@H](NC(=O)[C@H](Cc1ccccc1)NC(=O)[C@H](CC(=O)O)NC(=O)[C@H](CCCNC(=N)N)NC(=O)[C@H](C)NC(=O)[C@H](C)NC(=O)[C@H](CC(C)C)NC(=O)[C@H](CCCCNC(=O)CC[C@H](NC(=O)CCCCCCCCCCCCCCCCC(=O)O)C(=O)O)NC(=O)[C@H](CC(=O)O)NC(=O)[C@H](CC(C)C)NC(=O)[C@@H](NC(=O)[C@@H](NC(=O)[C@H](C)NC(=O)[C@H](CC(C)C)NC(=O)[C@H](CCC(=O)O)NC(=O)[C@H](CO)NC(=O)[C@@H](NC(=O)[C@H](Cc1ccccc1)NC(=O)[C@@H](NC(=O)CNC(=O)[C@H](CCC(=O)O)NC(=O)C(C)(C)NC(=O)[C@@H](N)Cc1c[nH]cn1)[C@@H](C)O)[C@@H](C)O)[C@@H](C)O)[C@@H](C)CC)C(=O)N[C@@H](C)C(=O)N[C@@H](Cc1c[nH]c2ccccc12)C(=O)N[C@@H](CC(C)C)C(=O)N[C@H](C(=O)N[C@@H](CCC(=O)O)C(=O)N[C@@H](Cc1c[nH]cn1)C(=O)N[C@@H](CCCCN)C(=O)N[C@H](C(=O)N[C@H](C(=O)N[C@@H](CC(=O)O)C(=O)O)[C@@H](C)O)[C@@H](C)CC)[C@@H](C)CC
B2: Compound 16 (peptide)
peptide: HXEGTFTSELATILDXEAARLFIAWLIEHKITD
HELM: PEPTIDE1{H.[Aib].E.G.T.F.T.S.E.L.A.T.I.L.D.K.E.A.A.R.L.F.I.A.W.L.I.E.H.K.I.T.D}|PEPTIDE2{[O=C(O)CCCCCCCCCCCCCCCCC(=O)[*:2]].[gGlu]}$PEPTIDE1,PEPTIDE2,16:R3-2:R2$$$V2.0
SMILES: CC[C@H](C)[C@H](NC(=O)[C@H](Cc1ccccc1)NC(=O)[C@H](CC(C)C)NC(=O)[C@H](CCCNC(=N)N)NC(=O)[C@H](C)NC(=O)[C@H](C)NC(=O)[C@H](CCC(=O)O)NC(=O)[C@H](CCCCNC(=O)CC[C@H](NC(=O)CCCCCCCCCCCCCCCCC(=O)O)C(=O)O)NC(=O)[C@H](CC(=O)O)NC(=O)[C@H](CC(C)C)NC(=O)[C@@H](NC(=O)[C@@H](NC(=O)[C@H](C)NC(=O)[C@H](CC(C)C)NC(=O)[C@H](CCC(=O)O)NC(=O)[C@H](CO)NC(=O)[C@@H](NC(=O)[C@H](Cc1ccccc1)NC(=O)[C@@H](NC(=O)CNC(=O)[C@H](CCC(=O)O)NC(=O)C(C)(C)NC(=O)[C@@H](N)Cc1c[nH]cn1)[C@@H](C)O)[C@@H](C)O)[C@@H](C)O)[C@@H](C)CC)C(=O)N[C@@H](C)C(=O)N[C@@H](Cc1c[nH]c2ccccc12)C(=O)N[C@@H](CC(C)C)C(=O)N[C@H](C(=O)N[C@@H](CCC(=O)O)C(=O)N[C@@H](Cc1c[nH]cn1)C(=O)N[C@@H](CCCCN)C(=O)N[C@H](C(=O)N[C@H](C(=O)N[C@@H](CC(=O)O)C(=O)O)[C@@H](C)O)[C@@H](C)CC)[C@@H](C)CC
B3: Compound 14 (peptide)
peptide: HXEGSFTSELATILDXLAARDFIAWLIAHKITD
HELM: PEPTIDE1{H.[Aib].E.G.S.F.T.S.E.L.A.T.I.L.D.K.L.A.A.R.D.F.I.A.W.L.I.A.H.K.I.T.D}|PEPTIDE2{[O=C(O)CCCCCCCCCCCCCCCCC(=O)[*:2]].[gGlu]}$PEPTIDE1,PEPTIDE2,16:R3-2:R2$$$V2.0
SMILES: CC[C@H](C)[C@H](NC(=O)[C@H](CC(C)C)NC(=O)[C@H](Cc1c[nH]c2ccccc12)NC(=O)[C@H](C)NC(=O)[C@@H](NC(=O)[C@H](Cc1ccccc1)NC(=O)[C@H](CC(=O)O)NC(=O)[C@H](CCCNC(=N)N)NC(=O)[C@H](C)NC(=O)[C@H](C)NC(=O)[C@H](CC(C)C)NC(=O)[C@H](CCCCNC(=O)CC[C@H](NC(=O)CCCCCCCCCCCCCCCCC(=O)O)C(=O)O)NC(=O)[C@H](CC(=O)O)NC(=O)[C@H](CC(C)C)NC(=O)[C@@H](NC(=O)[C@@H](NC(=O)[C@H](C)NC(=O)[C@H](CC(C)C)NC(=O)[C@H](CCC(=O)O)NC(=O)[C@H](CO)NC(=O)[C@@H](NC(=O)[C@H](Cc1ccccc1)NC(=O)[C@H](CO)NC(=O)CNC(=O)[C@H](CCC(=O)O)NC(=O)C(C)(C)NC(=O)[C@@H](N)Cc1c[nH]cn1)[C@@H](C)O)[C@@H](C)O)[C@@H](C)CC)[C@@H](C)CC)C(=O)N[C@@H](C)C(=O)N[C@@H](Cc1c[nH]cn1)C(=O)N[C@@H](CCCCN)C(=O)N[C@H](C(=O)N[C@H](C(=O)N[C@@H](CC(=O)O)C(=O)O)[C@@H](C)O)[C@@H](C)CC
B4: Compound 15 (peptide)
peptide: HXEGTFTSELATILDXLAARDFIAWLIAHKITD
HELM: PEPTIDE1{H.[Aib].E.G.T.F.T.S.E.L.A.T.I.L.D.K.L.A.A.R.D.F.I.A.W.L.I.A.H.K.I.T.D}|PEPTIDE2{[O=C(O)CCCCCCCCCCCCCCCCC(=O)[*:2]].[gGlu]}$PEPTIDE1,PEPTIDE2,16:R3-2:R2$$$V2.0
SMILES: CC[C@H](C)[C@H](NC(=O)[C@H](CC(C)C)NC(=O)[C@H](Cc1c[nH]c2ccccc12)NC(=O)[C@H](C)NC(=O)[C@@H](NC(=O)[C@H](Cc1ccccc1)NC(=O)[C@H](CC(=O)O)NC(=O)[C@H](CCCNC(=N)N)NC(=O)[C@H](C)NC(=O)[C@H](C)NC(=O)[C@H](CC(C)C)NC(=O)[C@H](CCCCNC(=O)CC[C@H](NC(=O)CCCCCCCCCCCCCCCCC(=O)O)C(=O)O)NC(=O)[C@H](CC(=O)O)NC(=O)[C@H](CC(C)C)NC(=O)[C@@H](NC(=O)[C@@H](NC(=O)[C@H](C)NC(=O)[C@H](CC(C)C)NC(=O)[C@H](CCC(=O)O)NC(=O)[C@H](CO)NC(=O)[C@@H](NC(=O)[C@H](Cc1ccccc1)NC(=O)[C@@H](NC(=O)CNC(=O)[C@H](CCC(=O)O)NC(=O)C(C)(C)NC(=O)[C@@H](N)Cc1c[nH]cn1)[C@@H](C)O)[C@@H](C)O)[C@@H](C)O)[C@@H](C)CC)[C@@H](C)CC)C(=O)N[C@@H](C)C(=O)N[C@@H](Cc1c[nH]cn1)C(=O)N[C@@H](CCCCN)C(=O)N[C@H](C(=O)N[C@H](C(=O)N[C@@H](CC(=O)O)C(=O)O)[C@@H](C)O)[C@@H](C)CC
B5: Compound 13 (peptide)
peptide: HXEGTFSSELATILDXLAARDFIAWLIAHKITD
HELM: PEPTIDE1{H.[Aib].E.G.T.F.S.S.E.L.A.T.I.L.D.K.L.A.A.R.D.F.I.A.W.L.I.A.H.K.I.T.D}|PEPTIDE2{[O=C(O)CCCCCCCCCCCCCCCCC(=O)[*:2]].[gGlu]}$PEPTIDE1,PEPTIDE2,16:R3-2:R2$$$V2.0
SMILES: CC[C@H](C)[C@H](NC(=O)[C@H](CC(C)C)NC(=O)[C@H](Cc1c[nH]c2ccccc12)NC(=O)[C@H](C)NC(=O)[C@@H](NC(=O)[C@H](Cc1ccccc1)NC(=O)[C@H](CC(=O)O)NC(=O)[C@H](CCCNC(=N)N)NC(=O)[C@H](C)NC(=O)[C@H](C)NC(=O)[C@H](CC(C)C)NC(=O)[C@H](CCCCNC(=O)CC[C@H](NC(=O)CCCCCCCCCCCCCCCCC(=O)O)C(=O)O)NC(=O)[C@H](CC(=O)O)NC(=O)[C@H](CC(C)C)NC(=O)[C@@H](NC(=O)[C@@H](NC(=O)[C@H](C)NC(=O)[C@H](CC(C)C)NC(=O)[C@H](CCC(=O)O)NC(=O)[C@H](CO)NC(=O)[C@H](CO)NC(=O)[C@H](Cc1ccccc1)NC(=O)[C@@H](NC(=O)CNC(=O)[C@H](CCC(=O)O)NC(=O)C(C)(C)NC(=O)[C@@H](N)Cc1c[nH]cn1)[C@@H](C)O)[C@@H](C)O)[C@@H](C)CC)[C@@H](C)CC)C(=O)N[C@@H](C)C(=O)N[C@@H](Cc1c[nH]cn1)C(=O)N[C@@H](CCCCN)C(=O)N[C@H](C(=O)N[C@H](C(=O)N[C@@H](CC(=O)O)C(=O)O)[C@@H](C)O)[C@@H](C)CC

What was measured:
[1] = target: human glucagon-like peptide 1 receptor (GLP-1 R) (human, UniProt P43220 24-463); assay: cell-based or functional assay
[2] = target: T1, human GLP-2 receptor (hGLP2-R); assay: cell-based or functional assay

Binder	EC50 GLP-1 (nM); cAMP response [1]	EC50 GLP-2 (nM); cAMP response [2]
B1	0.14 nM	0.11 nM
B2	0.073 nM	0.68 nM
B3	0.57 nM	0.086 nM
B4	0.25 nM	0.16 nM
B5	2.2 nM	0.099 nM
